The data set “cryo-EM structure” deals with the molecule itself. The data set is described as follows: cryo-EM structure.
Data set [1] deals with the molecule itself. The data set is described as follows: SEC + other: negative-stain EM.

B1: MtEfpA (EfpA from Mycobacterium tuberculosis), wild type, with C-terminal GFP and Strep-Tag II (natural protein)
chain: MTALNDTERAVRNWTAGRPHRPAPMRPPRSEETASERPSRYYPTWLPSRSFIAAVIAIGGMQLLATMDSTVAIVALPKIQNELSLSDAGRSWVITAYVLTFGGLMLLGGRLGDTIGRKRTFIVGVALFTISSVLCAVAWDEATLVIARLSQGVGSAIASPTGLALVATTFPKGPARNAATAVFAAMTAIGSVMGLVVGGALTEVSWRWAFLVNVPIGLVMIYLARTALRETNKERMKLDATGAILATLACTAAVFAFSIGPEKGWMSGITIGSGLVALAAAVAFVIVERTAENPVVPFHLFRDRNRLVTFSAILLAGGVMFSLTVCIGLYVQDILGYSALRAGVGFIPFVIAMGIGLGVSSQLVSRFSPRVLTIGGGYLLFGAMLYGSFFMHRGVPYFPNLVMPIVVGGIGIGMAVVPLTLSAIAGVGFDQIGPVSAIALMLQSLGGPLVLAVIQAVITSRTLYLGGTTGPVKFMNDVQLAALDHAYTYGLLWVAGAAIIVGGMALFIGYTPQQVAHAQEVKEAIDAGEL
notes: Forms an antiparallel dimer in LMNG-CHS; predominantly monomeric in DDM-CHS; No tag cleavage is described; also called MtEfpA-cGFP; MtEfpA-GFP; not shown: GFP, C-terminal, kept
For B1, the “stoichiometry N” value in the data set “cryo-EM structure” turned out to be 2.

B2: MtEfpA T324D mutant (natural protein)
chain: MTALNDTERAVRNWTAGRPHRPAPMRPPRSEETASERPSRYYPTWLPSRSFIAAVIAIGGMQLLATMDSTVAIVALPKIQNELSLSDAGRSWVITAYVLTFGGLMLLGGRLGDTIGRKRTFIVGVALFTISSVLCAVAWDEATLVIARLSQGVGSAIASPTGLALVATTFPKGPARNAATAVFAAMTAIGSVMGLVVGGALTEVSWRWAFLVNVPIGLVMIYLARTALRETNKERMKLDATGAILATLACTAAVFAFSIGPEKGWMSGITIGSGLVALAAAVAFVIVERTAENPVVPFHLFRDRNRLVTFSAILLAGGVMFSLDVCIGLYVQDILGYSALRAGVGFIPFVIAMGIGLGVSSQLVSRFSPRVLTIGGGYLLFGAMLYGSFFMHRGVPYFPNLVMPIVVGGIGIGMAVVPLTLSAIAGVGFDQIGPVSAIALMLQSLGGPLVLAVIQAVITSRTLYLGGTTGPVKFMNDVQLAALDHAYTYGLLWVAGAAIIVGGMALFIGYTPQQVAHAQEVKEAIDAGEL
As to B2, the binding result in data set [1] is “binds”.

B3: MtEfpA L195D mutant (natural protein)
chain: MTALNDTERAVRNWTAGRPHRPAPMRPPRSEETASERPSRYYPTWLPSRSFIAAVIAIGGMQLLATMDSTVAIVALPKIQNELSLSDAGRSWVITAYVLTFGGLMLLGGRLGDTIGRKRTFIVGVALFTISSVLCAVAWDEATLVIARLSQGVGSAIASPTGLALVATTFPKGPARNAATAVFAAMTAIGSVMGDVVGGALTEVSWRWAFLVNVPIGLVMIYLARTALRETNKERMKLDATGAILATLACTAAVFAFSIGPEKGWMSGITIGSGLVALAAAVAFVIVERTAENPVVPFHLFRDRNRLVTFSAILLAGGVMFSLTVCIGLYVQDILGYSALRAGVGFIPFVIAMGIGLGVSSQLVSRFSPRVLTIGGGYLLFGAMLYGSFFMHRGVPYFPNLVMPIVVGGIGIGMAVVPLTLSAIAGVGFDQIGPVSAIALMLQSLGGPLVLAVIQAVITSRTLYLGGTTGPVKFMNDVQLAALDHAYTYGLLWVAGAAIIVGGMALFIGYTPQQVAHAQEVKEAIDAGEL
Regarding B3, the binding result in data set [1] is on record as “binds”.

B4: MtEfpA G502D mutant (natural protein)
chain: MTALNDTERAVRNWTAGRPHRPAPMRPPRSEETASERPSRYYPTWLPSRSFIAAVIAIGGMQLLATMDSTVAIVALPKIQNELSLSDAGRSWVITAYVLTFGGLMLLGGRLGDTIGRKRTFIVGVALFTISSVLCAVAWDEATLVIARLSQGVGSAIASPTGLALVATTFPKGPARNAATAVFAAMTAIGSVMGLVVGGALTEVSWRWAFLVNVPIGLVMIYLARTALRETNKERMKLDATGAILATLACTAAVFAFSIGPEKGWMSGITIGSGLVALAAAVAFVIVERTAENPVVPFHLFRDRNRLVTFSAILLAGGVMFSLTVCIGLYVQDILGYSALRAGVGFIPFVIAMGIGLGVSSQLVSRFSPRVLTIGGGYLLFGAMLYGSFFMHRGVPYFPNLVMPIVVGGIGIGMAVVPLTLSAIAGVGFDQIGPVSAIALMLQSLGGPLVLAVIQAVITSRTLYLGGTTGPVKFMNDVQLAALDHAYTYGLLWVAGAAIIVDGMALFIGYTPQQVAHAQEVKEAIDAGEL
For B4, the binding result in data set [1] is listed as “binds”.

B5: MtEfpA G377D mutant (natural protein)
chain: MTALNDTERAVRNWTAGRPHRPAPMRPPRSEETASERPSRYYPTWLPSRSFIAAVIAIGGMQLLATMDSTVAIVALPKIQNELSLSDAGRSWVITAYVLTFGGLMLLGGRLGDTIGRKRTFIVGVALFTISSVLCAVAWDEATLVIARLSQGVGSAIASPTGLALVATTFPKGPARNAATAVFAAMTAIGSVMGLVVGGALTEVSWRWAFLVNVPIGLVMIYLARTALRETNKERMKLDATGAILATLACTAAVFAFSIGPEKGWMSGITIGSGLVALAAAVAFVIVERTAENPVVPFHLFRDRNRLVTFSAILLAGGVMFSLTVCIGLYVQDILGYSALRAGVGFIPFVIAMGIGLGVSSQLVSRFSPRVLTIGGDYLLFGAMLYGSFFMHRGVPYFPNLVMPIVVGGIGIGMAVVPLTLSAIAGVGFDQIGPVSAIALMLQSLGGPLVLAVIQAVITSRTLYLGGTTGPVKFMNDVQLAALDHAYTYGLLWVAGAAIIVGGMALFIGYTPQQVAHAQEVKEAIDAGEL
With B5, the binding result in data set [1] is on record as “binds”.

A word on the stoichiometry N: it is the number of molecules, sites or subunits per partner or assembly.

The values above are taken from article PMC10802681, “Structures of the essential efflux pump EfpA from Mycobacterium tuberculosis reveal the mechanisms of substrate transport and small-molecule inhibition” (Research Square, 2024).
